# US20240285753A1 (DUKE UNIVERSITY, published 2024)
# B1: DH1509 (antibody, V domains shown)
# VH: QVQLVESGGGVVQPGRSLRLSCAASGFTLSSHGIHWVRQAPGKGLEWVAVTSFDGRNKKFGDSVKGRFTISRDNSKNTVYLQMNSLRTEDTAVYYCAKDWGDDYSRWYFDLWGRGTLVTVSS
# VL: DIQMTQSPSSLSASVGDRVTITCQASHDITKYLNWYQQKPGRAPKLLIYDASNLKTGVPSRFSGSGSGTDFTFTITSLQPEDLATYYCQQSDVLPITFGQGTRLEIK
# Target: MERS spike (2P) (MERS-CoV, UniProt K9N5Q8 18-1291)
# Assay: ELISA, coated spike, mAb titrated
binder,measurement,value
B1,EC50 (read off the curve),~0.2 mg/L
